Measurements as given in patent US20070066802A1.

Columns and labels:
Experiment in all cases: cell-based or functional assay
[1] = biological target: K^b-CD28[L→G]-ζ receptor pulsed with ovalbumin 257-264 peptide (SIINFEKL) (mouse) (UniProt P31041)
[2] = biological target: K^b-CD28-ζ receptor pulsed with ovalbumin 257-264 peptide (SIINFEKL) (mouse) (UniProt P31041)
[3] = biological target: K^b-CD28[L→G]-ζ receptor (mouse) (UniProt P31041)

| Substance | in vivo depletion of Vα2+ OT-1 cells from the LN, peptide-pulsed against unpulsed RMTC [1] | in vivo depletion of Vα2+ OT-1 cells from the spleen, peptide-pulsed against unpulsed RMTC [1] | lysis of OT-1 target cells, peptide concentration for equivalent lysis against K^b-CD28-ζ RMTC (fold lower peptide concentration) [1] | specific lysis of OT-1 T cells, RMTC dose for equivalent lysis against K^b-CD28-ζ RMTC (fold fewer RMTC) [1] | in vivo depletion of Vα2+ OT-1 cells from the LN, peptide-pulsed against unpulsed RMTC [2] | in vivo depletion of Vα2+ OT-1 cells from the spleen, peptide-pulsed against unpulsed RMTC [2] | IFN-γ release by RMTC [3] |
| --- | --- | --- | --- | --- | --- | --- | --- |
| OT-1 TCR (rearranged ovalbumin 257-264/H-2K^b restricted TCR) | 98% | 99% | 5 to 20 | 3 to 9 | 93% | 96% |  |
| clone AF6-88.5 anti-mouse H-2K^b (antibody) |  |  |  |  |  |  | > 3.5 fold |
